Measurements published in publication PMC12561412, “Aptamer‐Mediated Artificial Synapses for Neuromorphic Modulation of Inflammatory Signaling via Organic Electrochemical Transistor”.

Columns and labels:
interferon-gamma (IFN-γ) = interferon-gamma (IFN-γ) (UniProt P01579 24-161); experiment: organic electrochemical transistor, aptamer on Au gate; no noticeable current change; SPR: PBS-P+ pH 7.4, 5% DMSO, CM5 chip, 30 uL/min, 60 s injections, temperature not stated; OECT: PBS 1x pH 7.4 (also albumin, serum), VDS 0.1 V; conditions: protein: commercial; chain copies: 2
interleukin-11 (IL-11) = biological target: T1, interleukin-11 (IL-11) (UniProt P20809 22-199); experiment: as above; conditions: protein: commercial
T1 sequence: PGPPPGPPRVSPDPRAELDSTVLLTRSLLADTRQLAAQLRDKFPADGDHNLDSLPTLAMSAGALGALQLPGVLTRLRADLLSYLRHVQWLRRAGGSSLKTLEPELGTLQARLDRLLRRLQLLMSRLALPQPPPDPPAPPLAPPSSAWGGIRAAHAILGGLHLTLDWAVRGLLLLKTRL

interleukin-6 (IL-6) = interleukin-6 (IL-6) (UniProt P05231 30-212); experiment: organic electrochemical transistor, aptamer on Au gate; PBS; linear response 0.5 pM to 50 nM; also in ALB and serum; SPR: PBS-P+ pH 7.4, 5% DMSO, CM5 chip, 30 uL/min, 60 s injections, temperature not stated; OECT: PBS 1x pH 7.4 (also albumin, serum), VDS 0.1 V; conditions: protein: commercial
Sequence of interleukin-6 (IL-6) (P05231 30-212): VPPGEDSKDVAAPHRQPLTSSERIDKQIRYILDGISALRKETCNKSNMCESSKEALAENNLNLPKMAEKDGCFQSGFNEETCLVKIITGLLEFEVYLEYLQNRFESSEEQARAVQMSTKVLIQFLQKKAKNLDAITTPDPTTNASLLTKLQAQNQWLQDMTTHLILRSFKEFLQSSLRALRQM

Sequence of interferon-gamma (IFN-γ) (P01579 24-161): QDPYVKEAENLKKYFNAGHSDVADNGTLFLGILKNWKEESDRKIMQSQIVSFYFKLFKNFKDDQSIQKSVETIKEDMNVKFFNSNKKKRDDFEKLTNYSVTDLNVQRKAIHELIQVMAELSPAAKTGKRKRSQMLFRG

GGTGGCAGGAGGACTATTTATTTGCTTTTCT (ssDNA, 5' C6 thiol, immobilized on gold via Au-S) [IL-6 aptamer, thiolated, on Au gate]: no binding (interferon-gamma (IFN-γ)); no binding (interleukin-11 (IL-11)); binds (interleukin-6 (IL-6)).
